Data reported in the Human Domainome abundance scans (Beltran et al. 2025).

B1: Transcription factor SOX-11, residues 50 to 117; numbered along this chain, P35716 (parent)
chain: KRPMNAFMVWSKIERRKIMEQSPDMHNAEISKRLGKRWKMLKDSEKIPFIREAERLRLKHMADYPDYK

Variants of: B1
Assay: abundance fitness (aPCA) (normalised: wild type 0, dead -1); higher = more abundant; growth selection in yeast, the domain comes from the species named
Settings: Homo sapiens

Abundance fitness: each site, then its substitutions
K39: E -0.075, F -0.455, G -0.084, C -0.452, P -0.868, Q 0.05, L -0.274, Y -0.683, W -1.03, M -0.211, H -0.473, D 0.008, V -0.395, S -0.148, R -0.119, N -0.045
N27: W 0.105, V -0.178, Q 0.205, Y -0.213, R -0.341, S 0.07, H 0.139, P 0.4, G -0.096, M -0.287, L -0.279, T -0.033, K -0.178
R37: E 0.188, T 0.205, Q 0.073, I -0.123, N 0.001, L -0.085, W -0.418, K -0.039, M -0.058, F -0.764, C -0.346, A 0.117, P -1.13, H -0.129, V -0.271, G 0.01, Y -0.59, D -0.27
L34: Y -0.826, Q -0.638, P -0.222, N -0.82, F -0.68, C -0.522, R -0.763, A -0.938, S -0.719, V -0.531, K -1.29, W -0.909, D -0.685, H -0.846, E -0.891, M -0.547
E45: L -0.221, N -0.439, K -0.667, T -0.942, W -0.447, I -0.336, P -0.918, M -0.314, S -0.828, Y -0.395, Q -0.282, C -0.548, F -0.297, R -0.891, H -0.45, G -1.04, V -0.425
K42: M -0.161, W -0.706, C -0.424, G -0.221, V -0.431, L -0.315, E -0.387, N 0.051, F -0.673, I -0.526, Y -0.525, P 0.021, H -0.235, R -0.278, A -0.058, D -0.263
D43: F -0.047, M -0.079, K -0.205, G -0.402, H -0.129, L -0.077, V -0.397, E -0.127, P 0.009, Y -0.191, I -0.272, C -0.448, S -0.339
K32: A 0, V -0.101, S -0.253, T -0.308, I -0.145, L -0.175, Q -0.061, F -0.329, N -0.185, H -0.036, W -0.137, P -0.672, G -0.245, M -0.17, E 0.245, D 0.047
M40: D 0.111, C -0.191, L 0.011, K 0.29, H -0.119, N -0.022, P -0.711, W -0.503, R -0.372, Y -0.383, T -0.05, I -0.605, Q 0.361, F -0.404, V -0.665, E 0.354, S 0.023
I47: F -0.23, S -0.279, E 0.259, K -0.198, H -0.46, N -0.529, C -0.567, L 0.162, G -0.259, A 0.061, D -0.107, M 0.101, P -1.04
W38: P -1, N -0.914, R -0.653, K -0.375, L -0.994, V -0.766, S -0.59, D -0.696, T -1.05, M -0.717, Q -0.068, I -0.716, E -1.27, C -0.644, A -0.568, H -0.851, G -0.865, F -0.801, Y -0.641
G35: R 0.142, K 0.484, C 0.129, S 0.315, T 0.262, M 0.17, I 0.173, V 0.25, W -0.207, H 0.266, L 0.162, Y 0.126, E 0.519, D 0.25, Q 0.212, P -0.234, A 0.152
L41: V -0.53, Y -0.753, I -0.652, G -0.702, F -0.791, R -0.762, E -1.04, H -0.951, A -0.671, P -1.14, K -0.666, N -0.849, Q -0.721, C -0.876, S -0.604, W -0.867, D -0.849
R33: Q 0.465, T 0.367, Y 0.167, N -0.008, F -0.001, W 0.125, H -0.008, E 0.343, L 0.438, G -0.54, K -0.075, D 0.169, A 0.22, C 0.178, P -0.75, S 0
S31: W -0.3, R -0.311, H -0.244, E 0.489, F -0.246, V -0.064, P -0.855, K -0.096, G -0.278, D 0.176, Y -0.262, N 0.195, M -0.333, T 0.029, L -0.2, Q -0.213, C -0.2, A 0.143
K36: V 0.052, Y 0.041, F -0.149, H -0.036, L 0.034, R -0.011, P -0.868, I 0.199, N 0.094, D 0.247, W -0.535, T 0.155, M -0.047, G -0.219, A 0.084, C -0.166
A28: H -0.183, L -0.211, N -0.24, D 0.205, Y -0.34, M -0.529, K -0.278, C -0.268, R -0.266, F -0.47, P -0.562, G -0.205, Q -0.247, T -0.134, E -0.061, W -0.425, I -0.205
S44: W -0.037, R -0.24, N -0.29, E 0.274, H -0.053, M -0.362, G -0.208, K -0.492, F -0.132, D 0.169, Q 0.585, I 0.005, Y -0.024, T -0.215, C -0.089, P -0.752
K46: G -0.671, A -0.871, E -0.74, F -0.987, Y -0.968, I -0.595, M -0.85, L -0.982, W -0.995, T -0.619, P -0.844, C -0.848, H -0.718, S -0.996, V -0.647, D -0.777
I30: N -0.701, Y -0.596, V 0.039, W -0.611, D -0.779, K -1.09, P -0.708, Q -0.797, R -0.879, G -0.67, H -0.733, M -0.711, C -0.304, S -0.682
E29: R -1.1, C -0.767, T -0.753, G -0.792, Q -0.517, S -0.638, P -0.866, A -0.436, L -0.798, K -0.363, I -0.815, Y -0.969, H -0.666
